Measured values from paper PMC7205571 (Structure (London, England : 1993), 2020).

Legend:
monoubiquitin = monoubiquitin (UniProt P0CG48 1-76); assay: NMR 13C-half-filtered NOESY
hRpn13 Pru (1–150) = hRpn13 Pru (1–150) (human, UniProt Q16186 1-150, 13C-labelled); assay: NMR structure

B1: hRpn2-bound hRpn13 (hRpn13 Pru:hRpn2 (940–953) complex) (complex, human)
chain 1: MTTSGALFPSLVPGSRGASNKYLVEFRAGKMSLKGTTVTPDKRKGLVYIQQTDDSLIHFCWKDRTSGNVEDDLIIFPDDCEFKRVPQCPSGRVYVLKFKAGSKRLFFWMQEPKTDQDEEHCRKVNEYLNNPPMPGALGASGSSGHELSAL
chain 2: QEPEPPEPFEYIDD
modifications: 13C-labelled
monoubiquitin
  binding result: binds

B2: hRpn2 (940–953) (peptide, UniProt Q99460 940-953, looked up)
chain: QEPEPPEPFEYIDD
hRpn13 Pru (1–150)
  binding result: binds
